# Reference: patent US20210030857A1 (NGM BIOPHARMACEUTICALS, published 2021)
# T1: human beta klotho expressed on cells (human, UniProt Q86Z14 1-1044)
# T1 construct: also called HuKLB overexpressing cells; Human KLB
# T1 sequence: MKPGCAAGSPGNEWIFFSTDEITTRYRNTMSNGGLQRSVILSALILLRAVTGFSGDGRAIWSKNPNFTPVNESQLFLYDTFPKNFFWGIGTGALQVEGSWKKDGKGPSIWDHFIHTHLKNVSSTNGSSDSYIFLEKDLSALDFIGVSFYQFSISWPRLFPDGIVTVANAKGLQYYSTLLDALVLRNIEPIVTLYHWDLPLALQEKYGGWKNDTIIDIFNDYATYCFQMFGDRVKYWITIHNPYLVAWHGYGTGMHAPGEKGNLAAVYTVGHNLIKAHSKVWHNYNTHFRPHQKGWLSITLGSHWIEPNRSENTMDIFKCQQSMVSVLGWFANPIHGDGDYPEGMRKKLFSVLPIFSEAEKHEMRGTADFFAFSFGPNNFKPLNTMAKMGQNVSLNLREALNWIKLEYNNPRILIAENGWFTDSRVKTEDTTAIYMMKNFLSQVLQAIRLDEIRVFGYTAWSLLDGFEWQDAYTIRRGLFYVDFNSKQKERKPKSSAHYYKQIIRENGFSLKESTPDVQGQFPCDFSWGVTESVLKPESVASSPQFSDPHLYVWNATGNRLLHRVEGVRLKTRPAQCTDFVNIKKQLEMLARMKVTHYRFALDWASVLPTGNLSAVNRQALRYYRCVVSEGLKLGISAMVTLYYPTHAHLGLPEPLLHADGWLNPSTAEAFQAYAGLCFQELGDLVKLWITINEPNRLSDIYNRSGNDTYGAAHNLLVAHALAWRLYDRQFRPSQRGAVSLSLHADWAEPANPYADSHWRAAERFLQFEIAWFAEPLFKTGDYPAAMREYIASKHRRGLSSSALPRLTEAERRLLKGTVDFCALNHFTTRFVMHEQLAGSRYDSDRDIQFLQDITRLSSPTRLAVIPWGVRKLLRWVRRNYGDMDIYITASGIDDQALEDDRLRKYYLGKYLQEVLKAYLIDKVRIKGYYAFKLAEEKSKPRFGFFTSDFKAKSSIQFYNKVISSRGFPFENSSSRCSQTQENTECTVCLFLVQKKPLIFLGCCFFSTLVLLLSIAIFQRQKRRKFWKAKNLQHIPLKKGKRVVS
# T2: cynomolgus monkey beta klotho protein (soluble, used in Biacore) (cynomolgus monkey (Macaca fascicularis), UniProt Q86Z14 53-996 (human entry), limits assumed)
# T2 construct: Protein in solution; also called Cyno KLB; cyKLB
# T2 chain: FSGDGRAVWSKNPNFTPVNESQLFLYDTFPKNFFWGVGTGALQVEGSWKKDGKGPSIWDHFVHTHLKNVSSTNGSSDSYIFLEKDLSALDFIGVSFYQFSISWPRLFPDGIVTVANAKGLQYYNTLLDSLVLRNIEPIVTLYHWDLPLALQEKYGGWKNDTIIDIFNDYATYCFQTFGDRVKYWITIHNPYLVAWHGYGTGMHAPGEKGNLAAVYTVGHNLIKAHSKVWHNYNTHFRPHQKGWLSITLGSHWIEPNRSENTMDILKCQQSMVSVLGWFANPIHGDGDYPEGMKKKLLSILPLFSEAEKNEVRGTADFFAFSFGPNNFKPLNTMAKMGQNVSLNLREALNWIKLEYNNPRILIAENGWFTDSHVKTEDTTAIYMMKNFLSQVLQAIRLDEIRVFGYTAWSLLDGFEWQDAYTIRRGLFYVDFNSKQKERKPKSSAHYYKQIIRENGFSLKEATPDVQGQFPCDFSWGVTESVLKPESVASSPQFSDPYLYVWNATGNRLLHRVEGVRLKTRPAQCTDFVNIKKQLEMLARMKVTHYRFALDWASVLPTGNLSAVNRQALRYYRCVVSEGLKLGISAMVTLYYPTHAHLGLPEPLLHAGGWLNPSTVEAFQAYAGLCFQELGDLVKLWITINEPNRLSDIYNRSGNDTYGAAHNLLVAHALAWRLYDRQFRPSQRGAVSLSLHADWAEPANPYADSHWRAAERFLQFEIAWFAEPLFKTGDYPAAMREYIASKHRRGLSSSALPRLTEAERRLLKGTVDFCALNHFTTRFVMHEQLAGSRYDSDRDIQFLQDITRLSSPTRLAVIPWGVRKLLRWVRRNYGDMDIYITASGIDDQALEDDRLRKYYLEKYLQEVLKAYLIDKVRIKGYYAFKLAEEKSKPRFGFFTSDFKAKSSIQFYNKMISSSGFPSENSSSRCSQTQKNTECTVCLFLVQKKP
# B1: negative control antibody, anti-keyhole limpet hemocyanin (KLH) antibody (antibody, human IgG1, kappa, V domains shown)
# VH: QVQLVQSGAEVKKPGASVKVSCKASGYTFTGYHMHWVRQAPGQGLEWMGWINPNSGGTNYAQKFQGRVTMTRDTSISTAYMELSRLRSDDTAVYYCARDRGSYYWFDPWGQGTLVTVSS
# VL: DIQMTQSPSSLSASVGDRVTITCRASQGIRNDLGWYQQKPGKAPKRLIYAASSLQSGVPSRFSGSGSGTEFTLTISSLQPEDFATYYCLQHNSYPLTFGGGTKVEIKR
# notes: also called Neg; Control; anti-KLH antibody
# B2: antibody 5H23 (antibody, V domains shown)
# VH: QVQLQQSGPELVKPGALVKISCKASGYTFTSYDINWVKQRPGQGLEWIGWIYPGDGSTKYNEKFKGKATLTADKSSRTAYMQLSSLTSENSAVYFCARSDYYGSRSFAYWGQGTLVTVSA
# VL: DIVLTQSPASLAVSLGQRATISCRASKSVSTSGYVYMHWNQQKPGQPPKLLIYLASYLESGVPARFSGSGSGTDFTLNIHPVEEEDAAIYYCQHSRDLTFPFGGGTKLEIK
# notes: Murine monoclonal antibody from hybridoma; also called 5H23-Alexa647 (labelled form)
# B3: humanized 5H23 antibody (VH SEQ ID NO: 271 and VL SEQ ID NO: 276) (antibody, V domains shown)
# VH: QVQLQQSGAEVKKPGASVKVSCKASGYTFTSYDINWVRQAPGQGLEWIGWIYPGDGSTKYNEKFKGKATITRDTSASTAYMELSSLRSEDTAVYFCARSDYYGSRSFAYWGQGTLVTVSS
# VL: DIVMTQSPDSLAVSLGERATINCRASKSVSTSGYVYMHWYQQKPGQPPKLLIYLASYLESGVPDRFSGSGSGTDFTLTISSVQAEDVAVYYCQHSRDLTFPFGGGTKLEIK
# notes: also called h5H23; h5H23 (Prep 1)
# Legend:
# [1] = biological target: T1, human beta klotho expressed on cells; assay: FACS on transfected Expi293 cells
# Procedure: (§1) Studies were performed in order to localize the binding site on human KLB of anti-beta klotho antibodies in the 5H23 epitope bin, including 5H23 as described in Example 3, with sequences shown in Tables 1-10 and FIGS. 1-3, and human anti-beta klotho antibodies in the 5H23 epitope bin, such as humanized 5H23 antibodies (e.g., VH SEQ ID NO: 271 and VL SEQ ID NO: 276). For example, FACS-based binding assays for domain mapping were performed on Expi293 cells (Life Technologies, A14635) that were transiently transfected with plasmids encoding variants of KLB: human, mouse, cynomolgus, a chimeric version in which the KL1 domain sequence of mouse KLB (M1-F506) replaces the KL1 domain of human KLB (M1-F508) to create mouse-human KLB (SEQ ID NO: 376), and a second chimera in which the human KL1 sequence (M1-F508) replaces the KL1 domain of mouse KLB (M1-F506) to create human-mouse KLB (SEQ ID NO: 374). Additionally, the expression vector pYD7 harboring no KLB sequence was transfected as a negative control.
# (§2) In some studies, binding of a purified sample of a humanized 5H23 antibody (e.g., VH SEQ ID NO: 271 and VL SEQ ID NO: 276) to KLB variants was determined by FACS analysis. […] After washing with PBS/1% BSA/0.1% azide, transfected cells were then co-incubated with labeled anti-human Fc (Jackson lmmunoresearch) for 30 minutes at 4° C. After washing with PBS/1% BSA/0.1% azide, cells were acquired on flow cytometer (FACS Calibur) and analyzed by cytometric software (FlowJo). To display the resulting data, graphs plotting the number of cells as a function of fluorescence intensity were generated, and the median fluorescence intensity (MFI) was determined for each sample as shown in Table 30.
# [2] = biological target: T2, cynomolgus monkey beta klotho protein …; assay: Biacore SPR (as in Example 2)
# [3] = biological target: T3, human-mouse KLB chimeric protein (human KLB (M1-F508)-mouse KLB (P507-S1043)) on cells (human/mouse chimera, UniProt Q99N32 1-1043 (mouse entry)); assay: FACS on transfected Expi293 cells
# T3 construct: also called Human-Mouse chimeric KLB; chHuMo
# Procedure: as §1, §2
binder,measurement,setting,value
B1,binding result,[1],no binding (tested: 1 µg/ml)
B2,Kd,[2],700 pM
B3,binding result,[3],no binding (tested: 1 µg/ml)
